Assay [1] concerns the target T1, human CD20 (human, UniProt P11836 1-297).
T1 construct: whole, on cells; also called cell surface CD20
T1 sequence (looked up): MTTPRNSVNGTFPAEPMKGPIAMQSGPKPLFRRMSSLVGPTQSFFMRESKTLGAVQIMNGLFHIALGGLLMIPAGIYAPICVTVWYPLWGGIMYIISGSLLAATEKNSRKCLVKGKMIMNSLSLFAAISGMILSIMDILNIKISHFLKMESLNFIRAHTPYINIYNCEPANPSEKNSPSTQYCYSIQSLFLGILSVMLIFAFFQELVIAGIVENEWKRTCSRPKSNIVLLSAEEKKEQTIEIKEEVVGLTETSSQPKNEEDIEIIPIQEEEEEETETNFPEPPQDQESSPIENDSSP
Put plainly: indirect immunofluorescence, flow cytometry, BJAB cells, saturating mAb. As to the method:
(§1) Reactivity of human blood lymphocytes and the Raji, BJAB or DHL-4 B lymphoblastoid cell lines with anti-CD20 monoclonal antibodies at saturating concentrations or with secondary antibody alone (control). The anti-CD20 monoclonal antibodies were used at concentrations that were determined to be saturating and that gave optimal staining. 1F5, B9E9 and 1H4 (IgG2a) monoclonal antibodies were used as ascites fluid diluted 1:200. HB20-3, -4 and -25 monoclonal antibodies were used as tissue culture supernatant fluid. B1 monoclonal antibody was used at either 10 μg/mL of purified monoclonal antibody or as tissue culture supernatant fluid. In all cases, monoclonal antibody staining was visualized using PE-conjugated isotype-specific secondary antibodies with flow cytometry analysis. Values represent the mean linear fluorescence intensity of staining for each B cell population as determined by flow cytometry analysis. Results are representative of those obtained in ≧3 experiments.
In general terms: In flow cytometry, cells or beads pass a laser one at a time.

Assay [2] addresses T1, human CD20. In words: indirect immunofluorescence, flow cytometry, Raji cells, saturating mAb. How it is done:
as §1

Assay [3] deals with T1, human CD20. In words: indirect immunofluorescence, flow cytometry, DHL-4 cells, saturating mAb. How it is done: as §1
Assay [4] concerns the target T1, human CD20. In words: indirect immunofluorescence, flow cytometry, human blood B cells, saturating mAb. As to the method: as §1
For assay [5], the target named is T2, mouse CD20 (mouse, UniProt P19437 1-291).
T2 construct: whole, on cells; Endogenous mouse CD20 on primary B cells; also called cell-surface CD20
T2 sequence (looked up): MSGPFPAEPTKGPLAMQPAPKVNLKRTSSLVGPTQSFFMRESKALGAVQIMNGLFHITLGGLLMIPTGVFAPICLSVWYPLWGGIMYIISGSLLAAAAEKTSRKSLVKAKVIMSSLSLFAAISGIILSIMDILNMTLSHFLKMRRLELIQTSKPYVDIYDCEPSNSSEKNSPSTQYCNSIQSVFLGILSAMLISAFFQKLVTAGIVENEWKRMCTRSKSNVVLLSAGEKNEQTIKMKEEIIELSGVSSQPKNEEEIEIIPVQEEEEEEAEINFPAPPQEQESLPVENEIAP
Put plainly: flow cytometry, mouse spleen CD19+ B cells, control staining (background).

Assay [6] deals with T1, human CD20. In words: flow cytometry, BJAB cells, secondary antibody alone (background).
Assay [7] addresses T1, human CD20. Put plainly: flow cytometry, Raji cells, secondary antibody alone (background).
Assay [8] deals with T1, human CD20. Put plainly: flow cytometry, DHL-4 cells, secondary antibody alone (background).
For assay [9], the target named is T1, human CD20. Put plainly: flow cytometry, human blood B cells, secondary antibody alone (background).
Assay [10] has as its target T2, mouse CD20. Put plainly: flow cytometry, mouse spleen CD19+ B cells, mAb at 0.5 µg/mL, isotype-specific secondary antibody. How it is done:
Twelve mouse anti-mouse CD20 monoclonal antibodies, with representatives of each IgG isotype, were assessed for their ability to bind B cells and deplete them in vivo. Each monoclonal antibody reacted uniformly with CD19⁺ primary B cells in vitro with characteristic mean fluorescence intensities that were independent of monoclonal antibody isotype (FIG. 6A). When monoclonal antibody reactivity with primary B cells was assessed over a range of monoclonal antibody concentrations, most monoclonal antibodies reached saturating levels of staining when used at concentrations between 1-10 μg/mL (FIG. 6B). […] When all monoclonal antibodies were used at 0.5 μg/mL, each monoclonal antibody reacted uniformly with CD19⁺ primary B cells with characteristic low to high mean fluorescence intensities (FIG. 6C, Table 5). Similar results were obtained using a mouse CD20 cDNA-transfected pre-B cell line with anti-mouse Ig secondary antibody. Based on this analysis, the MB20-1 monoclonal antibody represented monoclonal antibodies with the lowest relative affinity/avidity, while the MB20-18 monoclonal antibody reacted strongly with B cells and stained B cells at the highest levels of all 12 anti-CD20 monoclonal antibodies (Table 5).

From patent US20090136516A1 (DUKE UNIVERSITY, published 2009) come the findings set out here.

Substitutions are numbered along the chain they refer to.

In the case of B1 anti-CD20 monoclonal antibody, the mean linear fluorescence intensity (mean linear fluorescence intensity) in [1] amounted to 700; in [2], 944; in assay [3], 486; in assay [4], 277.

As to “isotype-matched control monoclonal antibodies (antibody)”, the B cell reactivity (mean linear fluorescence intensity) (mean linear fluorescence intensity) in assay [5] is under 6.

Take secondary antibody alone (control): the mean linear fluorescence intensity (mean linear fluorescence intensity) in [6] is 10; in assay [7], 3; in assay [8] it was 1; in [9], 1.

B1: HB20-3 monoclonal antibody (antibody, V domains shown)
VH: EVQLQESGAELVKPGASVKMSCKASGFTFTNYNMHWLKQTPGQGLEWIGAIYPENGDTSYNQKFKGKATLTADKASSTAYMHLSSLTSEDSAVYFCARFYYYGSYYGAMDYWGQGTSVTVSS
VL: DIQMTQSPASLSASVGETVTITCRASGNIHNYLAWYQQKQGKSPQLLVYNAKTLADGVPSRFSGSGSGTQFSLKINSLQPEDFGSYYCQHFWSTPWTFGGGTKLEIKR
notes: Used as tissue culture supernatant; also called HB20-03; HB13c
Consider B1, for which the “mean linear fluorescence intensity” value in assay [1] was 1200 mean linear fluorescence intensity; in assay [2] it was 2220 mean linear fluorescence intensity; in assay [3], 765 mean linear fluorescence intensity; in assay [4] it was 469 mean linear fluorescence intensity.

B2: HB20-4 monoclonal antibody (antibody, V domains shown)
VH: B1 VH with L37V, K63R, A75S, S91T, M109L
VL: B1 VL with N28S, Q40L, T94I
notes: Used as tissue culture supernatant; also called HB20-04; HB13d
For B2, the “mean linear fluorescence intensity” value in assay [1] is 1100 mean linear fluorescence intensity; in [2] it was 1580 mean linear fluorescence intensity; in assay [3], 578 mean linear fluorescence intensity; in assay [4], 397 mean linear fluorescence intensity.

B3: MB20-18 monoclonal antibody (antibody, V domains shown)
VH: EVQLQESGLDLVKPGASVKISCKASGYTFTDYYMKWVKQSHGKSLDWIGDINPNNGDIIYNQKFEGKATLTVDKSSSTAYMELRSLTSEDSAVYYCARERFAYWGQGTLVTVSA
VL: SIVMTQTPKFLLVSTGDRVTITCKASQTVTNDLAWYQQKPGQSPKLLIYYASNRYTGVPDRFTGSGYGTDFTFTINTVQAEDLAVYFCQQDYSSPLTFGAGTKLELKR
notes: Mouse anti-mouse CD20 hybridoma antibody, IgG2b
B3: the “B cell reactivity (mean linear fluorescence intensity)” value in [10] is 729 mean linear fluorescence intensity.

B4: MB20-8 monoclonal antibody (antibody, V domains shown)
VH: B3 VH with L9P
VL: EIVLTQSPTTMAASPGEKITITCSVSSNIRSNYLHWYQQKPGFSPKLLIYRTSNLASGVPARFSGSGSGTSYSLTIGTMKAEDVATYYCQQGSSIPLTFGAGTKLELKR
notes: Mouse anti-mouse CD20 hybridoma antibody, IgG2b; also called MB20-08
With B4, the “B cell reactivity (mean linear fluorescence intensity)” value in assay [10] was 240 mean linear fluorescence intensity.

B5: MB20-10 monoclonal antibody (antibody, V domains shown)
VH: B3 VH with L9P
VL: B4 VL
notes: as for B3
As to B5, the “B cell reactivity (mean linear fluorescence intensity)” value in assay [10] was 317 mean linear fluorescence intensity.

B6: MB20-14 monoclonal antibody (antibody, V domains shown)
VH: B3 VH with L9P, D10E, T28M, M34I, D46E, I58T, E65K, S77N, E82D, S85I
VL: B4 VL with N28S, I76V, G77A, K80E
notes: Mouse anti-mouse CD20 hybridoma antibody, IgG1
Regarding B6, the “B cell reactivity (mean linear fluorescence intensity)” value in [10] is 166 mean linear fluorescence intensity.

B7: MB20-7 monoclonal antibody (antibody, V domains shown)
VH: B3 VH with L9P, T28M, D46E, I58T, I59T
VL: B4 VL with I2L, M11K, N28S, K40R, K80E, I95L
notes: Mouse anti-mouse CD20 hybridoma antibody, IgG2b; also called MB20-07
Regarding B7, the “B cell reactivity (mean linear fluorescence intensity)” value in [10] was 525 mean linear fluorescence intensity.

B8: MB20-2 monoclonal antibody (antibody, V domains shown)
VH: B3 VH with L9P, D10E, T28M, M34I, D46E, I58T, E65K, S77N, E82D
VL: B4 VL with N28S, I76V, G77A, K80E
notes: Mouse anti-mouse CD20 hybridoma antibody, IgG1; also called MB20-02
On to B8, for which the “B cell reactivity (mean linear fluorescence intensity)” value in assay [10] is 209 mean linear fluorescence intensity.

B9: MB20-1 monoclonal antibody (antibody, V domains shown)
VH: EVQLQESGGGLVQPGGSLKLSCAASGFTFSDYGMAWVRQAPRKGPEWVAFISNLAYSIYYADTVTGRFTISRENAKNTLYLEMSSLRSEDTAMYFCTRTGYYALDYWGQGTSVTVSS
VL: NIMMTQSPSSLAVSAGEKVTMRCKSSQSVLYSSKRKNYLAWYQQKPGKSPTLLIYWASTRESGVPDRFTGSGSGTDFTLTITSVQAEDLAVYYCHQYLSSFTFGGGTKLEIKR
notes: Mouse anti-mouse CD20 hybridoma antibody, IgG1; also called MB20-01
Regarding B9, the “B cell reactivity (mean linear fluorescence intensity)” value in [10] was 69 mean linear fluorescence intensity.

B10: MB20-13 monoclonal antibody (antibody, V domains shown)
VH: B9 VH
VL: B4 VL with T5A, M11T, V25A, N28S, R30T, K80E, I95K, P96T
notes: Mouse anti-mouse CD20 hybridoma antibody, IgG3
Turning to B10, in assay [10], the “B cell reactivity (mean linear fluorescence intensity)” value is 603 mean linear fluorescence intensity.

B11: HB20-25 monoclonal antibody (antibody, V domains shown)
VH: EVQLQESGAELVKPGASVKMSCKASGFRFTNYNLHWVKQTPGQGLEWIGAIYPGNGETSYNQKFKGKATLTADKSSSTAYMQLRSLTSGDSAVYYCARFYYYGSSYGAMDYWGQGTSVTVSS
VL: DIQMTQSPASLSVSVGETVTITCRASENIYSNLAWYQQKQGKSPQLLVYAATNLADGVPSRFSGSGSGTQYSLKINSLQSEDFGSYYCQHFWGIPWTFGGGTKLEIKR
notes: Used as tissue culture supernatant
For B11, the “mean linear fluorescence intensity” value in [1] is 849 mean linear fluorescence intensity; in assay [2] it was 1350 mean linear fluorescence intensity; in assay [3], 514 mean linear fluorescence intensity; in [4], 227 mean linear fluorescence intensity.

B12: 1F5 anti-CD20 monoclonal antibody (antibody, V domains shown)
VH: QVQLRQPGAELVKPGASVKMSCKASGYTFTSYNMHWVKQTPGQGLEWIGAIYPGNGDTSYNQKFKGKATLTADKSSSTAYMQLSSLTSEDSAVYYCARSHYGSNYVDYFDYWGQGTTLTVSS
VL: DIVLSQSPAILSASPGEKVTMTCRASSSLSFMHWYQQKPGSSPKPWIYATSNLASGVPARFSGSGSGTSYSLTISRVEAEDAATYFCHQWSSNPLTFGAGTKLELK
As to B12, the “mean linear fluorescence intensity” value in [1] was 386 mean linear fluorescence intensity; in [2], 455 mean linear fluorescence intensity; in assay [3] it was 169 mean linear fluorescence intensity; in [4] it was 104 mean linear fluorescence intensity.

B13: B9E9 anti-CD20 monoclonal antibody (antibody, V domains shown)
VH: QVQLVQSGAELVKPGASVKMSCKASGYTFTSYNMHWVKQTPGQGLEWIGAIYPGNGDTSYNQKFKGKATLTADKSSSTAYMQLSSLTSEDSAVYYCARAQLRPNYWYFDVWGAGTTVTVSS
VL: B12 VL with L29V, F31Y, F86Y, H88Q, S91I, L95P
For the molecule B13, the “mean linear fluorescence intensity” value in assay [1] is 377 mean linear fluorescence intensity; in assay [2], 438 mean linear fluorescence intensity; in assay [3] it was 162 mean linear fluorescence intensity; in assay [4] it was 112 mean linear fluorescence intensity.

B14: 1H4 (IgG2a) anti-CD20 monoclonal antibody (antibody)
chain 1: QVQLQQPGAELVKPGASVKMSCKTSGYTFTSYNVHWVKQTPGQGLEWIGAIYPGNGDTSFNQKFKGKATLTADKSSSTVYMQLSSLTSEDSAVYYCARSNYYGSSYVWFFDVWGAGTTGTGSS
chain 2: B12 VL with D1Q, A9T, L29V, F31Y, H33D, F86Y, H88Q, S91I, L95P
In the case of B14, the “mean linear fluorescence intensity” value is 240 mean linear fluorescence intensity in [1], 244 mean linear fluorescence intensity in assay [2], 98 mean linear fluorescence intensity in [3] and 75 mean linear fluorescence intensity in [4].
